Source: paper PMC9825171 (Nucleic Acids Research, 2022)

What was measured:
RBPJ = settings: read-out: affinity for RBPJ; ref [19],[20]; cited from earlier work
RBPJ (53–474) = RBPJ (53–474) (Mus musculus, UniProt P31266); assay: ITC binding of L3MBTL3 constructs and peptides to native RBPJ; settings: 25°C; for K / Kd: 50 mM sodium phosphate pH 6.5, 150 mM NaCl, one site binding model; for K: mean of at least three independent experiments ± SD, NBD = no binding detected; for Kd: mean of at least three independent experiments
[1] = pH 6.5, mean of at least three independent experiments ± SD

Sequence of RBPJ (53–474) (P31266 53-474): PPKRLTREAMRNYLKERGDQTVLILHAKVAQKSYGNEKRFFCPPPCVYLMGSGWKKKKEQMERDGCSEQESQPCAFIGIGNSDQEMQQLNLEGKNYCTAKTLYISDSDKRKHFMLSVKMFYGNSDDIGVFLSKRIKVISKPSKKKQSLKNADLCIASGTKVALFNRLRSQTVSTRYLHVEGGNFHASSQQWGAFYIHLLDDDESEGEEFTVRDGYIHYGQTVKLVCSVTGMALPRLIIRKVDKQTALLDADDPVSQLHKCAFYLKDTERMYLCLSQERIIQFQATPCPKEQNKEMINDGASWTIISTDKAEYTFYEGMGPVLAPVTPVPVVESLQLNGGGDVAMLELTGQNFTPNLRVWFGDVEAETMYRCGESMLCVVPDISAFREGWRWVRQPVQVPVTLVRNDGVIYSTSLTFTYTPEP

Row | Molecule | Kd (RBPJ) [nM] | binding to RBPJ, in words (RBPJ (53–474)) | K (RBPJ (53–474)) | Kd (RBPJ (53–474)) [nM] | ΔG° (RBPJ (53–474); [1]) [kcal/mol] | –TΔS° (RBPJ (53–474); [1]) [kcal/mol] | ΔH° (RBPJ (53–474); [1]) [kcal/mol]
1 | RITA1: corepressor, RBPJ interacting Tubulin associated protein 1 (protein, UniProt Q96K30 1-269, looked up) RBPJ-interacting and …: MKTPVELAVSGMQTLGLQHRCRGGYRVKARTSYVDETLFGSPAGTRPTPPDFDPPWVEKANRTRGVGKEASKALGAKGSCETTPSRGSTPTLTPRKKNKYRPISHTPSYCDESLFGSRSEGASFGAPRMAKGDAAKLRALLWTPPPTPRGSHSPRPREAPLRAIHPAGPSKTEPGPAADSQKLSMGGLHSSRPLKRGLSHSLTHLNVPSTGHPATSAPHTNGPQDLRPSTSGVTFRSPLVTSRARSVSISVPSTPRRGGATQKPKPPWK | ~1000 | – | – | – | – | – | –
2 | 198–523: human L3MBTL3 fragment, the MBT domains (198–523) (protein, UniProt Q96JM7 198-523, looked up, fragment) QDVRILRGSQRARRKRRGDSAVLKQGLPPKGKKAWCWASYLEEEKAVAVPAKLFKEHQSFPYNKNGFKVGMKLEGVDPEHQSVYCVLTVAEVCGYRIKLHFDGYSDCYDFWVNADALDIHPVGWCEKTGHKLHPPKGYKEEEFNWQTYLKTCKAQAAPKSLFENQNITVIPSGFRVGMKLEAVDKKNPSFICVATVTDMVDNRFLVHFDNWDESYDYWCEASSPHIHPVGWCKEHRRTLITPPGYPNVKHFSWDKYLEETNSLPAPARAFKVKPPHGFQKKMKLEVVDKRNPMFIRVATVADTDDHRVKVHFDGWNNCYDYWIDAD | – | no detectable binding | NBD | – | – | – | –
3 | 1–523: human L3MBTL3 fragment, N-terminal region through the MBT domains (residues 1–523) (protein, UniProt Q96JM7 1-523, looked up, fragment) MTESASSTSGQEFDVFSVMDWKDGVGTLPGSDLKFRVNEFGALEVITDENEMENVKKATATTTWMVPTAQEAPTSPPSSRPVFPPAYWTSPPGCPTVFSEKTGMPFRLKDPVKVEGLQFCENCCQYGNVDECLSGGNYCSQNCARHIKDKDQKEERDVEEDNEEEDPKCSRKKKPKLSLKADTKEDGEERDDEMENKQDVRILRGSQRARRKRRGDSAVLKQGLPPKGKKAWCWASYLEEEKAVAVPAKLFKEHQSFPYNKNGFKVGMKLEGVDPEHQSVYCVLTVAEVCGYRIKLHFDGYSDCYDFWVNADALDIHPVGWCEKTGHKLHPPKGYKEEEFNWQTYLKTCKAQAAPKSLFENQNITVIPSGFRVGMKLEAVDKKNPSFICVATVTDMVDNRFLVHFDNWDESYDYWCEASSPHIHPVGWCKEHRRTLITPPGYPNVKHFSWDKYLEETNSLPAPARAFKVKPPHGFQKKMKLEVVDKRNPMFIRVATVADTDDHRVKVHFDGWNNCYDYWIDAD | – | – | 5.4 ± 0.9 × 10^5 M^−^1 | 1900 | -7.7 ± 0.2 | 2.9 ± 1.8 | –
4 | 1–197: human L3MBTL3 fragment, the N-terminus (1–197) (protein, UniProt Q96JM7 1-197, looked up, fragment) MTESASSTSGQEFDVFSVMDWKDGVGTLPGSDLKFRVNEFGALEVITDENEMENVKKATATTTWMVPTAQEAPTSPPSSRPVFPPAYWTSPPGCPTVFSEKTGMPFRLKDPVKVEGLQFCENCCQYGNVDECLSGGNYCSQNCARHIKDKDQKEERDVEEDNEEEDPKCSRKKKPKLSLKADTKEDGEERDDEMENK | – | – | 6.6 ± 0.3 × 10^5 M^−^1 | 1500 | -7.9 ± 0.03 | -0.7 ± 0.1 | -7.2 ± 0.1
